{
  "source": "patent US20240368668",
  "proteins": {"B1": {"name": "purified full-length mouse ADAMTS7 S3A WT 3xFlag (protein)", "chain": "SVAKEKWVETLVVADSKMVEYHGQPQVESYVLTIMNMVAGLFHDPSIGNPIHISIVRLIILEDEEKDLKITHHAEETLKNFCRWQKNINIKGDDHPQHHDTAILLTRKDLCASMNQPCETLGLSHVSGLCHPQLSCSVSEDTGMPLAFTVAHELGHSFGIQHDGTGNDCESIGKRPFIMSPQLLYDRGIPLTWSRCSREYITRFLDRGWGLCLDDRPSKDVIALPSVLPGVLYDVNHQCRLQYGSHSAYCEDMDDVCHTLWCSVGTTCHSKLDAAVDGTSCGKNKWCLKGECVPEGFQPEAVDGGWSGWSAWSDCSRSCGVGVRSSERQCTQPVPKNRGKYCVGERKRSQLCNLPACPPDRPSFRHTQCSQFDGMLYKGKLHKWVPVPNDDNPCELHCRPSNSSNTEKLRDAVVDGTPCYQSRISRDICLNGICKNVGCDFVIDSGAEEDRCGVCRGDGSTCQTVSRTFKETEGQGYVDIGLIPAGAREILIEEVAEAANFLALRSEDPDKYFLNGGWTIQWNGDYRVAGTTFTYARKGNWENLTSPGPTSEPVWIQLLFQEKNPGVHYQYTIQRDSHDQVRPPEFSWHYGPWSKCTVTCGTGVQRQSLYCMERQAGVVAEEYCNTLNRPDERQRKCSEEPCPPRWWAGEWQPCSRSCGPEGLSRRAVFCIRSMGLDEQRALELSACEHLPRPLAETPCNRHVICPSTWGVGNWSQCSVTCGAGIRQRSVLCINNTDVPCDEAERPITETFCFLQPCQYPMYIVDTGASGSGSSSPELFNEVDFIPNQLAPRPSPASSPKPVSISNAIDEEELDPPGPVFVDDFYYDYNFINFHEDLSYGSFEEPHPDLVDNGGWTAPPHIRPTESPSDTPVPTAGALGAEAEDIQGSWSPSPLLSEASYSPPGLEQTSINPLANFLTEEDTPMGAPELGFPSLPWPPASVDDMMTPVGPGNPDELLVKEDEQSPPSTPWSDRNKLSTDGNPLGHTSPALPQSPIPTQPSPPSISPTQASPSPDVVEVSTGWNAAWDPVLEADLKPGHGELPSTVEVASPPLLPMATVPGIWGRDSPLEPGTPTFSSPELSSQHLKTLTMPGTLLLTVPTDLRSPGPSGQPQTPNLEGTQSPGLLPTPARETQTNSSKDPEVQPLQPSLEEDGDPADPLPARNASWQVGNWSQCSTTCGLGAIWRLVSCSSGNDEDCTLASRPQPARHCHLRPCAAWRTGNWSKCSRNCGGGSSTRDVQCVDTRDLRPLRPFHCQPGPTKPPNRQLCGTQPCLPWYTSSWRECSEACGGGEQQRLVTCPEPGLCEESLRPNNSRPCNTHPCTQWVVGPWGQCSAPCGGGVQRRLVRCVNTQTGLAEEDSDLCSHEAWPESSRPCATEDCELVEPPRCERDRLSFNFCETLRLLGRCQLPTIRAQCCRSCPPLSRGVPSRGHQRVARR"}, "B2": {"name": "full-length mouse Adamts7 1-1857 WT with a carboxyl terminal 3xFLAG tag, expressed from adenovirus (protein)", "chain": "B1 chain with A3S"}, "B3": {"name": "purified full-length mouse ADAMTS7 S3A EQ (catalytic mutant E373Q) (protein)", "chain": "B1 chain with E153Q"}, "B4": {"name": "full-length mouse Adamts7 1-1857 E373Q catalytic mutant with a carboxyl terminal 3xFLAG tag, expressed from adenovirus (protein)", "chain": "B1 chain with A3S, E153Q"}},
  "key": {"[1]": {"target": "T1, purified recombinant human HA-tagged EFEMP1/Fibulin-3 (R&D, 8416-FB), Q12805", "T1 chain": "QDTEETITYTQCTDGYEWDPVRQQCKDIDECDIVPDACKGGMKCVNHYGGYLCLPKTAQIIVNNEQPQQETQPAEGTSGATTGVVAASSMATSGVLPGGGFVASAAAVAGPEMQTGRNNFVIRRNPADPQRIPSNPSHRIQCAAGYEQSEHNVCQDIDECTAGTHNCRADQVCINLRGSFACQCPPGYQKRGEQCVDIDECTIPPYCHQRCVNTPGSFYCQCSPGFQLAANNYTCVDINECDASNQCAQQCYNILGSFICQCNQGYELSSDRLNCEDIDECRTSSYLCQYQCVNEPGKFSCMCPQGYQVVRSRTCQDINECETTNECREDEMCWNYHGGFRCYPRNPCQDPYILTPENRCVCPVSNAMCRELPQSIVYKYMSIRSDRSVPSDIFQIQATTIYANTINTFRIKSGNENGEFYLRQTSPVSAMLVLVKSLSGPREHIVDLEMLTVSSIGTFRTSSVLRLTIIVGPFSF"}, "[2]": {"target": "T2, endogenous EFEMP1 (EGF-containing fibulin-like extracellular matrix protein 1, Fibulin-3) secreted by HUVEC, Q12805", "T2 chain": "T1 chain"}},
  "note": "Residue numbers refer to the chain shown, from its start. Names and notes keep the numbering of the source.",
  "data": [
    {"protein": "B1", "values": [
      {"measurement": "auto-cleavage, peptide sequencing of the purified protein", "setting": "Q68SA9", "value": "Peptide sequencing (Tufts University Core Facility) of the lower band or the total purified WT S3A protein identified a potential auto-cleavage site at F1062 (SYGS|FEEP)"},
      {"measurement": "in vitro cleavage, 4 hours at 37 C, western blot", "setting": "[1]", "value": "Full-length HA-EFEMP1 was detected at the expected position and a lower band was detected matching the predicted HA tagged amino terminus after cleavage by ADAMTS7 in the atypical first EGF domain"}
    ]},
    {"protein": "B2", "values": [
      {"measurement": "auto-cleavage, western blot of HUVEC media", "setting": "Q68SA9", "value": "ADAMTS7 WT migrated at two bands matching the observed autocleavage event in the mucin domain"},
      {"measurement": "cleavage of endogenous EFEMP1 in HUVEC media, western blot and mass spectrometry", "setting": "[2]", "value": "identified semi-tryptic and semi-chymotryptic peptides indicating cleavage at 123.124 and 124.125 sites from the Ad-ADAMTS7 WT sample"},
      {"measurement": "relative cleavage at 123.124 against 124.125 (TAILS log FC and total intensities)", "setting": "[2]", "value": "predicting 2-3 fold more cleavage at 123.124 (ASAA|AVAG) (SEQ ID NO: 1) compared to the adjacent 124.125 (SAAA|VAGP) (SEQ ID NO: 2) site"}
    ]},
    {"protein": "B3", "values": [
      {"measurement": "in vitro cleavage, western blot and mass spectrometry of gel bands", "setting": "[1]", "value": "background cleavage under conditions with no enzyme or with ADAMTS7 S3A EQ treatment, however these occurrences were relatively minor compared to the activity stimulated by ADAMTS7 S3A WT"}
    ]},
    {"protein": "B4", "values": [
      {"measurement": "cleavage of endogenous EFEMP1 in HUVEC media, mass spectrometry", "setting": "[2]", "value": "these sites were not detected in the Luc or EQ samples"}
    ]}
  ]
}
